Reference: publication PMC2229230
Read-outs that look alike come from different tables or passages of the source.

Columns and labels:
[1] = molecular target: endo-Gly0-gramicidin C; assay: single-channel recording in planar lipid bilayers
[2] = molecular target: endo-Gly0-gramicidin C; assay: single-channel recording in planar lipid bilayers; remark: listed apart in the source

For endo-Gly0-gramicidin C (peptide), the average channel duration tau (dimer lifetime, 1/k-1) [1] was 862 ms and the average channel duration tau (dimer lifetime, 1/k-1) [2] was 410 ms.
